{
  "source": "patent CN106117360A",
  "target": "CD3 on Jurkat cells",
  "assay": "flow cytometry, culture supernatant on Jurkat cells (negative control sdAb)",
  "data": [
    {"substance": "NC-sdAb(相同形式的非相关性sdAb) (VHH)", "values": [
      {"measurement": "MFI", "value": 115, "unit": "MFI"}
    ]}
  ]
}
